US20230192818A1 (TWIST BIOSCIENCE, published 2023)
Read-outs that look alike come from different tables or passages of the source.

B1: 15-3 (Fc fusion)
chain: EVQLVESGGGLVQPGGSLRLSCAASGFTFSPSWMGWFRQAPGKEREFVATINEYGGRNYADSVKGRFTISADNSKNTAYLQMNSLKPEDTAVYYCARVDRDFDYWGQGTLVTVSS
notes: also called Antibody 15-3; Antibody 15 parent
B2: 3-31 (Fc fusion)
chain: EVQLVESGGGLVQPGGSLRLSCAASGSTFSINAMGWFRQAPGKEREFVAGITSSGGYTNYADSVKGRFTISADNSKNTAYLQMNSLKPEDTAVYYCAADGVPEYSDYASGPVWGQGTLVTVSS
notes: also called Antibody 3-31

What was measured:
SARS-CoV-2 S1 (Acro) [1] = molecular target: T1, SARS-CoV-2 S1 (Acro) (SARS-CoV-2, UniProt P0DTC2 16-685); assay: SPR (Carterra)
T1 construct: also called Acro S1

SARS-CoV-2 S1 (Acro) [2] = molecular target: T1, SARS-CoV-2 S1 (Acro); assay: SPR (Carterra); remark: listed apart in the source

Binder | Kd (SARS-CoV-2 S1 (Acro) [1]) | Kd (SARS-CoV-2 S1 (Acro) [2])
B1 | 31.5 nM | –
B2 | 21 nM | 21 nM
